Patent publication US10918697B2, “Co-activation of mTOR and STAT3 pathways to promote neuronal survival and regeneration” (Children's Medical Center Corporation, priority 2011, dated 2021)
Entries after “also recorded” stand apart in the source; their conditions may differ.

Assays:
[1] = test system: retinal ganglion cells (RGCs) / optic nerve axons; details: SOCS3f/f mice, CNTF applied intravitreously; cited from earlier work
[2] = test system: corticospinal tract (CST) axons; experiment: CST sprouting after intraspinal CNTF injection without pyramidotomy, BDA tracing; format: in vivo, mice
Protocol: For pyramidotomy, mice were anesthetized with ketamine/xylazine. The procedure is similar to that described previously […]. Briefly, an incision was made at the left side of the trachea. Blunt dissection was performed to expose the skull base and a craniotomy in the occipital bone allowed for access to the medullary pyramids. The left pyramid was cut with a fine scalpel medially up to the basilar artery. The wound was dosed in layers with 6.0 sutures. The mice were placed on soft bedding on a warming blanket held at 37° C. until fully awake. We traced the intact CST 4 weeks later with BDA (see below). For CNTF injection into adult SOCS3 f/f mice with neonatal AAV-Cre cortical injection, a laminectomy was performed at C1 and 1 ul of CNTF (10 ug/ml, PeproTech, 450-13) was injected with a nanoliter injector into the ventral side of the dorsal column (0.5 mm deep). BDA tracing was performed 6 weeks later.
To label CST axons by anterograde tracing, a total of 2.0 μl of BDA (10%, Invitrogen, D-1956) was injected into the right sensorimotor cortex at five sites (anterior-posterior coordinates from bregma in mm; 1.0, 0.5, 0, −0.5, −1.0, all at 1.0 mm lateral and at a depth of 0.5 mm). Mice were kept for an additional 2 weeks before being sacrificed.
Mice were given a lethal dose of anesthesia and transcardially perfused with 4% paraformaldehyde. Brains and spinal cords were isolated and post-fixed in the same fixative overnight at 4° C. Tissues were cryoprotected via increasing concentrations of sucrose. After embedding into OCT compound, the samples were snap frozen in dry ice. […]
For the groups of pyramidotomy, digital images of C7 or other levels of the spinal cord transverse sections were collected using a Nikon fluorescence microscope. […]
To quantify the number of sprouting axons, the methods used in previous studies (Liu et al., 2010) were followed. […] Only fibers crossing the three lines were counted in each section. The results were presented after normalization with the number of counted CST fibers at the medulla level. At least three sections were counted for each mouse.

B1: ciliary neurotrophic factor (protein, UniProt P26441 1-200, looked up)
Ciliary neurotrophic factor: MAFTEHSPLTPHRRDLCSRSIWLARKIRSDLTALTESYVKHQGLNKNINLDSADGMPVASTDQWSELTEAERLQENLQAYRTFHVLLARLLEDQQVHFTPTEGDFHQAIHTLLLQVAAFAYQIEELMILLEYKIPRNEADGMPINVGDGGLFEKKLWGLKVLQELSQWTVRSIHDLRFISSHQTGIPARGSHYIANNKKM
**Q.** Which “effect of intravitreal CNTF on axon regeneration induced by SOCS3 deletion” value [1] does the source give for B1 here?
**A.** The value was “enhances axon regeneration induced by SOCS3 deletion”.

**Q.** What about the “CST sprouting at C7 spinal cord level” value ([2]; SOCS3f/f mice, cortical AAV-Cre at P1, CNTF injected at C1, no injury) of the same molecule?
**A.** Its value is “but not C7; also recorded: No CST sprouts seen”.

**Q.** What about the “CST sprouting at C1 spinal cord level” value ([2]; SOCS3f/f mice, cortical AAV-Cre at P1, CNTF injected into dorsal spinal cord at C1 in adulthood, no injury, vs saline) of the same molecule?
**A.** Its value is “triggered a significant CST sprouting response; also recorded: promotes sprouting in SOCS3-deleted neurons in the absence of an injury; also recorded: numerous crossing CST axons”.

**Q.** What about the “extent of CST sprouting compared with left pyramidotomy” value ([2]; single CNTF injection at C1, SOCS3-deleted mice) of the same molecule?
**A.** The value was “less than after left pyramidotomy; also recorded: less pronounced than what is seen after injury”.
